Experiment [1] deals with T1, fibrin (Homo sapiens, UniProt P02671+P02675+P02679).
T1 construct: the mixture was clotted by the addition of 10 U/mL of thrombin; After 10 minutes at 37° C., the fibrin was compressed
T1 sequence (P02671 36-629 limits assumed): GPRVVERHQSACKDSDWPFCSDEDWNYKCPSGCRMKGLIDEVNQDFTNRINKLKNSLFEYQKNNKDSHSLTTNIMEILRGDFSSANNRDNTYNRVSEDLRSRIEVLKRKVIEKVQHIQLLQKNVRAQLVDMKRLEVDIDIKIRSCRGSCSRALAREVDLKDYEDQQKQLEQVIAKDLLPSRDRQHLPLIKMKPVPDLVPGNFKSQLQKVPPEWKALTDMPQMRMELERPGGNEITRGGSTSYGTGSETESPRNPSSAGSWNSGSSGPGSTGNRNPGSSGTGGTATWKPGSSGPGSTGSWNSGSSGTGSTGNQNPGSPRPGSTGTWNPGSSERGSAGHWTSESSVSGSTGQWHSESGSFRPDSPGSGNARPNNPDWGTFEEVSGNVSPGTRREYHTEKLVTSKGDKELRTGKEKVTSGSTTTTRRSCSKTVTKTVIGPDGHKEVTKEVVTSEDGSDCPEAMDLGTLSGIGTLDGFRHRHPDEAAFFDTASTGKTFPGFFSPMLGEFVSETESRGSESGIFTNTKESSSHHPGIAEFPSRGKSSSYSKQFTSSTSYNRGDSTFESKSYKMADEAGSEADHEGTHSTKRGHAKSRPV
T1 sequence (P02675 45-491 limits assumed): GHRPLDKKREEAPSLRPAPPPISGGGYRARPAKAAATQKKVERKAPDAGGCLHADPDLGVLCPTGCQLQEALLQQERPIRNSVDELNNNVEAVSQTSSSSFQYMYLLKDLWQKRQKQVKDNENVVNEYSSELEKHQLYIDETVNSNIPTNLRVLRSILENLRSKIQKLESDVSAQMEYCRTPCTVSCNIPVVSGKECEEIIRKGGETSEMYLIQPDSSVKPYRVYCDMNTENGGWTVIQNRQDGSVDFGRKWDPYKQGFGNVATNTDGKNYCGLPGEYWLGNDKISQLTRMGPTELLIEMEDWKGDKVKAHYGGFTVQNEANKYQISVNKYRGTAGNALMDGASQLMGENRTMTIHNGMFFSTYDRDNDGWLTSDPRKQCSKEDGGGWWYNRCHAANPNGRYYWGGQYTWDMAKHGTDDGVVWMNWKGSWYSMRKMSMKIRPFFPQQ
T1 sequence (P02679 27-437 isoform P02679-2 limits assumed): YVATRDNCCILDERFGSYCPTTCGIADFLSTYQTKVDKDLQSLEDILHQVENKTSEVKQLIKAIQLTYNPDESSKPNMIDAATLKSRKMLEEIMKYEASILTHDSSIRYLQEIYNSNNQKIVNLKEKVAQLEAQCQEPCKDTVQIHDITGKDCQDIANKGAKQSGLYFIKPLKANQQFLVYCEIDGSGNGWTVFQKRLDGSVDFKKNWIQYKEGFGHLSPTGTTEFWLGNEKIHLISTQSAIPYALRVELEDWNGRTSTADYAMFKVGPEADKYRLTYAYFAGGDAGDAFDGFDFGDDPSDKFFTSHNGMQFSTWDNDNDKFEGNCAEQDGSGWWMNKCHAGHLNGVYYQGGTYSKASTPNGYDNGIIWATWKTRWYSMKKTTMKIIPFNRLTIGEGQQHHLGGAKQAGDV
The experiment in a line: Fibrin binding of radiolabeled peptides. The note with it: unbound material analyzed by reverse phase HPLC. The method, then:
By reverse phase HPLC, peptides containing portions of the N- and C-terminal amino acid sequences of the DDAVY. . . peptide were separated from the full length DDAVY. . . peptide.
(§1) Binding of radiolabeled DDAVY. . . peptide prepared in accordance with Example 3 above was conducted in the presence of the following proteins: human albumin (Kabi), bovine serum albumin (BSA), hemoglobin, and cytochrome C. Fibrin binding was performed by incubating 0.5 mg/mL fibrinogen, 0.1% Triton X-100, 0.15M NaCl, 0.1M Tris, pH 7.4 (TBS), 10 mM CaCl2, and ^125 I-labeled DDAVY. . . peptide and the mixture was clotted by the addition of 10 U/mL of thrombin. After 10 minutes at 37° C., the fibrin was compressed by centrifugation (10-12,000 rpm for 10 minutes), washed thrice with TBS and the bound radioactivity was quantitated using a gamma Counter. Proteins were included in the binding mixture at these concentrations: hemoglobin (100 micromolar); human albumin (Kabi) (100 micromolar); and cytochrome C (500 micromolar). Fibrin concentration was approximately 1.0 micromolar.

Experiment [2] concerns the target T1, fibrin. Nature of the experiment: Inhibition of 125I-DDAVY. . . peptide binding to fibrin (competition). Here is the method: as §1
Purified recombinant platelet Factor XIII A-chains were used to inhibit the binding of DDAVY. . . peptide to fibrin. At a concentration of 0.4 mg/mL fibrinogen, 2.0 mg/mL of recombinant platelet Factor XIII inhibited the binding of DDAVY. . . peptide to fibrin by 76%. In another experiment, purified placental Factor XIII A-chains were used to inhibit DDAVY. . . peptide binding to fibrin. Binding was conducted in the presence of 1.0 mg/mL fibrinogen, 5 nanomoles of placental Factor XIII and approximately 0.05 nanomoles of the DDAVY. . . peptide. Under these conditions, the binding of the peptide to fibrin was inhibited by nearly 44%.
Binding of radiolabeled DDAVY. . . peptide (approximately 52 pmoles) was mixed with unlabeled DDAVY. . . peptide (approximately 34 nanomoles;=660-fold molar excess over radiolabeled peptide) and the mixture was bound to 0.1 mg/mL fibrin. Under these conditions, the binding of radiolabeled peptide was inhibited by nearly 83%. […] In these experiments and in the experiments conducted in the presence of XIII, binding values were corrected for nonspecific binding observed in the absence of thrombin and/or in the presence of XIII or unlabeled DDAVY. . . peptide alone.

For experiment [3], the system named is Factor XIIIa. Nature of the experiment: Factor XIIIa-catalyzed crosslinking of fibrin II (SDS-PAGE). The class given is biochemical. The note with it: human fibrinogen 0.27 mg/mL. The method, then:
This example illustrates the effect of DDAVY. . . peptide and NKLIV. . . peptide on fibrin crosslinking by Factor XIIIa. Purified human fibrinogen (0.27 mg/mL) was mixed with increasing concentrations (56 micromolar to 280 micromolar) of the DDAVY. . . peptide and incubated for 15 minutes at 37° C. Then, calcium chloride was added in 0.1M Tris, pH7.4 containing 0.15M NaCl (Tris-buffered saline, TBS) to make the final calcium concentration equal 10 mM. The mixture was then clotted by the addition of 10 U/mL thrombin. Thrombin also served to activate the catalytic amounts of Factor XIII present in the fibrinogen preparation. The mixture was incubated for an additional 15 minutes at 37° C. and then solubilized in SDS-PAGE buffer containing 5% sodium dodecylsulfate (SDS), 4M urea, 10mM Tris, pH7.4, 1.0 mM ethylenediaminetetraacetic acid (EDTA), 1% 2-mercaptoethanol, and 0.001% bromophenol blue. The mixture was boiled for 5 minutes, cooled, and then separated by electrophoresis on a 4-15% linear gradient polyacrylamide gel (SDS-polyacrylamide gel electrophoresis, SDS-PAGE). After electrophoresis, the gel was stained using Coomassie Brilliant Blue and destained. Control incubations were conducted simultaneously that contained no peptide.
The reaction was also conducted as described for the DDAVY. . . peptide, except that NKLIV. . . peptide was substituted for the DDAVY. . . peptide. […]

Ends that are not written are not given here.

As for “KTRSWSYGQF [C-terminal portion of the DDAVY. . . peptide separated by HPLC]”, the binding to fibrin entry in experiment [1] is “did not bind to fibrin”.
For “placental Factor XIII A-chains: purified placental Factor XIII A-chains”, the “inhibition of the binding of DDAVY. . . peptide to fibrin” value in experiment [2] (1.0 mg/mL fibrinogen, 5 nanomoles placental Factor XIII, approximately 0.05 nanomoles DDAVY. . . peptide) was approximately 44%.
For the substance “GEVNDIKTRSWSYGQF [C-terminal portion of the DDAVY. . . peptide separated by HPLC]”, in experiment [1], the binding to fibrin entry is recorded as “did not bind to fibrin”.
For the substance “DDAVYLDNEKEREEYVLNDIGVIFYGEVNDIKTRSWSYGQF-amide (DDAVYLDNEKEREEYVLNDIGVIFYGEVNDIKTRSWSYGQF-NH2) [DDAVY. . . peptide]”, the “inhibition of fibrin crosslinking” value in experiment [3] (280 micromolar peptide) was approximately 50%. The “concentration at which inhibition of fibrin crosslinking could be detected” value in experiment [3] (10 U/mL thrombin, 10 mM calcium) is “around 112 micromolar”. Also, the “inhibition of binding of radiolabeled DDAVY. . . peptide to fibrin” value in experiment [2] (1.0 mg/mL unlabeled peptide, 2.0 micrograms/mL radiolabeled peptide, 0.2 mg/mL fibrin) is recorded as “inhibited completely”; in experiment [2] (approximately 34 nanomoles unlabeled peptide (660-fold molar excess over approximately 52 pmoles radiolabeled), 0.1 mg/mL fibrin), approximately 83%. The binding to fibrin entry in experiment [1] is “bound to fibrin”.
As for “recombinant platelet Factor XIII: Purified recombinant platelet Factor XIII A-chains”, the “inhibition of the binding of DDAVY. . . peptide to fibrin” value in experiment [2] (0.4 mg/mL fibrinogen, 2.0 mg/mL recombinant platelet Factor XIII) was 76%.

The values are drawn from patent publication US5328898A, “Factor XIIIA fibrin binding fragments” (Duke University, priority 1990, dated 1994).
